Results taken from the supplement of paper PMC9876800.

Test system: peptide library, one residue held at a place counted from the S/T acceptor
Experiment: relative phosphorylation of the sub-library (ratio to the mean residue at this position); human; higher = residue favoured
Conditions: M fixed; at -1
Summary of the method: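 Purified recombinant kinases (human or orthologue constructs) were incubated in 384-well plates with biotinylated degenerate peptide sub-libraries, each fixing one residue at one position around a central Ser/Thr. Peptides were at 50 μM, with 50 μM ATP spiked with γ-32P-ATP, for 90 min under kinase-specific conditions. Spots on streptavidin membranes were phosphorimaged and quantified by densitometry. Relative sub-library phosphorylation is a ratio to the mean residue at that position.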

Sequence of NEK1, construct: aa1-505 (Q96PY6 1-505, looked up): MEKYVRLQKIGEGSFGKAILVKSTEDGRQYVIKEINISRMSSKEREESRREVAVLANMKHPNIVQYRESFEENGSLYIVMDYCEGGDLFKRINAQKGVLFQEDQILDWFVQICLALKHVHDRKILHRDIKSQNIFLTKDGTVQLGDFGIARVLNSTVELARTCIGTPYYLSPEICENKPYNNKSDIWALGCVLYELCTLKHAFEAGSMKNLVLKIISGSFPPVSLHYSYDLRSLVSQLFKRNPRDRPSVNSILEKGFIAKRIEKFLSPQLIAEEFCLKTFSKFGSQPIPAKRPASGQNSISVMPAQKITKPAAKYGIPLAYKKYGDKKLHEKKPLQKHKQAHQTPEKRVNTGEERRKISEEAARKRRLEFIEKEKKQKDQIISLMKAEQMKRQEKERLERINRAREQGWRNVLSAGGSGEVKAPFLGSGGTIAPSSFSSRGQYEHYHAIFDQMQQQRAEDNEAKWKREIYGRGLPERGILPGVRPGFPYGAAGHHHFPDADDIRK
Sequence of PAK2, construct: aa3-end (Q13177 3-524, looked up): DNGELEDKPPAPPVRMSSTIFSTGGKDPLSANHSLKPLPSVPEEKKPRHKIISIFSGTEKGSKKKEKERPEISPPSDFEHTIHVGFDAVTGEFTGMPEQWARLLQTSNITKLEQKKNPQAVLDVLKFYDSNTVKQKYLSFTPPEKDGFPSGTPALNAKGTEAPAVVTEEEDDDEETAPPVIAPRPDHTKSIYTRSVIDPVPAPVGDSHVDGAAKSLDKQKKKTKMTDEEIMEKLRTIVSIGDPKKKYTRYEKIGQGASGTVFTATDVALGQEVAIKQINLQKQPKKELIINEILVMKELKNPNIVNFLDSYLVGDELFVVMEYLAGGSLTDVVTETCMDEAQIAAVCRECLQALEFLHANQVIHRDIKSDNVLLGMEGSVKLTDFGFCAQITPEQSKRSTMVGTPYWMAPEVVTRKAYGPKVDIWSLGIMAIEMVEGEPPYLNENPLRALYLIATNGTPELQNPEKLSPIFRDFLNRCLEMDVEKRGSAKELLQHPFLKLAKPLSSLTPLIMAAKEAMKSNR
Sequence of STK10, construct: aa18-317 (O94804 18-317, looked up): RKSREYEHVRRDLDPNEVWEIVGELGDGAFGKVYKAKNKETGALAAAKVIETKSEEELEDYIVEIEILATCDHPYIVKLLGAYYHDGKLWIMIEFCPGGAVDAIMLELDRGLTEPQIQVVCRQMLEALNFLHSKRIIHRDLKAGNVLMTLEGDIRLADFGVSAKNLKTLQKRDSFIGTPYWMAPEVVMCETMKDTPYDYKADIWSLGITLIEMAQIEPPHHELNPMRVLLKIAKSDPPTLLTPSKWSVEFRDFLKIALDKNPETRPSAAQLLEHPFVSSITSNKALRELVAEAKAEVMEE
Sequence of CSNK2A1, construct: Full length (P68400 whole entry, looked up): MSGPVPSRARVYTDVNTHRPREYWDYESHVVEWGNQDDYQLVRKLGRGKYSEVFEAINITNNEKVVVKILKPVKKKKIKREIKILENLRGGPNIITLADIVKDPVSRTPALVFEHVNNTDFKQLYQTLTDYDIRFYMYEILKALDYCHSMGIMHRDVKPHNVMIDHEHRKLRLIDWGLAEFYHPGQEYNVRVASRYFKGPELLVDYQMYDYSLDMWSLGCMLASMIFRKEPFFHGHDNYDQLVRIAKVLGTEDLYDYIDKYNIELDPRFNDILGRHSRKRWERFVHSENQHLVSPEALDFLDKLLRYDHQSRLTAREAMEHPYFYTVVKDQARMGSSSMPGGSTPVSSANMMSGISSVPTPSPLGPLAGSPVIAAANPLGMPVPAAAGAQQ

Substance	relative phosphorylation
PRKCG, construct: Full length (from UniProt P05129)	0.741
STK10, construct: aa18-317 (from UniProt O94804)	1.12
STK39, construct: Full length (from UniProt Q9UEW8)	1.18

Same assay, conditions: M fixed; at -2

Substance	relative phosphorylation
CSNK2A1, construct: Full length (from UniProt P68400)	0.705
NEK1, construct: aa1-505 (from UniProt Q96PY6)	1.24
PAK2, construct: aa3-end (from UniProt Q13177)	0.416
PRKCG, construct: Full length (from UniProt P05129)	0.606
STK10, construct: aa18-317 (from UniProt O94804)	0.918
STK39, construct: Full length (from UniProt Q9UEW8)	0.744

Same assay, conditions: M fixed; at -3

Substance	relative phosphorylation
CSNK2A1, construct: Full length (from UniProt P68400)	0.823
NEK1, construct: aa1-505 (from UniProt Q96PY6)	1.62
PAK2, construct: aa3-end (from UniProt Q13177)	0.599
PRKCG, construct: Full length (from UniProt P05129)	0.652
STK10, construct: aa18-317 (from UniProt O94804)	0.759
STK39, construct: Full length (from UniProt Q9UEW8)	0.763

Same assay, conditions: M fixed; at -4

Substance	relative phosphorylation
CSNK2A1, construct: Full length (from UniProt P68400)	0.941
NEK1, construct: aa1-505 (from UniProt Q96PY6)	0.996
PAK2, construct: aa3-end (from UniProt Q13177)	0.885
PRKCG, construct: Full length (from UniProt P05129)	0.767
STK10, construct: aa18-317 (from UniProt O94804)	0.858
STK39, construct: Full length (from UniProt Q9UEW8)	0.832

Same assay, conditions: M fixed; at -5

Substance	relative phosphorylation
CSNK2A1, construct: Full length (from UniProt P68400)	0.911
NEK1, construct: aa1-505 (from UniProt Q96PY6)	1.13
PAK2, construct: aa3-end (from UniProt Q13177)	0.672
PRKCG, construct: Full length (from UniProt P05129)	0.572
STK10, construct: aa18-317 (from UniProt O94804)	0.768
STK39, construct: Full length (from UniProt Q9UEW8)	0.866

Same assay, conditions: N fixed; at +1

Substance	relative phosphorylation
CSNK2A1, construct: Full length (from UniProt P68400)	0.5
NEK1, construct: aa1-505 (from UniProt Q96PY6)	0.61
PAK2, construct: aa3-end (from UniProt Q13177)	0.738
PRKCG, construct: Full length (from UniProt P05129)	0.652
STK10, construct: aa18-317 (from UniProt O94804)	0.757
STK39, construct: Full length (from UniProt Q9UEW8)	0.453

Same assay, conditions: N fixed; at +2

Substance	relative phosphorylation
CSNK2A1, construct: Full length (from UniProt P68400)	1.42
NEK1, construct: aa1-505 (from UniProt Q96PY6)	1.02
PAK2, construct: aa3-end (from UniProt Q13177)	0.734
PRKCG, construct: Full length (from UniProt P05129)	0.609
STK10, construct: aa18-317 (from UniProt O94804)	1.12
STK39, construct: Full length (from UniProt Q9UEW8)	1.08

Same assay, conditions: N fixed; at +3

Substance	relative phosphorylation
CSNK2A1, construct: Full length (from UniProt P68400)	0.455
NEK1, construct: aa1-505 (from UniProt Q96PY6)	0.935
PAK2, construct: aa3-end (from UniProt Q13177)	0.847
PRKCG, construct: Full length (from UniProt P05129)	1.02
STK10, construct: aa18-317 (from UniProt O94804)	0.961
STK39, construct: Full length (from UniProt Q9UEW8)	1.27

Same assay, conditions: N fixed; at +4

Substance	relative phosphorylation
CSNK2A1, construct: Full length (from UniProt P68400)	0.904
NEK1, construct: aa1-505 (from UniProt Q96PY6)	0.912
PAK2, construct: aa3-end (from UniProt Q13177)	1.22
PRKCG, construct: Full length (from UniProt P05129)	1.01
STK10, construct: aa18-317 (from UniProt O94804)	1.17
STK39, construct: Full length (from UniProt Q9UEW8)	1.18

Same assay, conditions: N fixed; at -1

Substance	relative phosphorylation
CSNK2A1, construct: Full length (from UniProt P68400)	0.796
NEK1, construct: aa1-505 (from UniProt Q96PY6)	1.05
PAK2, construct: aa3-end (from UniProt Q13177)	1.07
PRKCG, construct: Full length (from UniProt P05129)	1.24
STK10, construct: aa18-317 (from UniProt O94804)	1.13
STK39, construct: Full length (from UniProt Q9UEW8)	1.34

Same assay, conditions: N fixed; at -2

Substance	relative phosphorylation
CSNK2A1, construct: Full length (from UniProt P68400)	0.813
NEK1, construct: aa1-505 (from UniProt Q96PY6)	1.29
PAK2, construct: aa3-end (from UniProt Q13177)	0.503
PRKCG, construct: Full length (from UniProt P05129)	1.28
STK10, construct: aa18-317 (from UniProt O94804)	0.879
STK39, construct: Full length (from UniProt Q9UEW8)	1.29

Same assay, conditions: N fixed; at -3

Substance	relative phosphorylation
CSNK2A1, construct: Full length (from UniProt P68400)	1.05
NEK1, construct: aa1-505 (from UniProt Q96PY6)	0.629
PAK2, construct: aa3-end (from UniProt Q13177)	0.977
PRKCG, construct: Full length (from UniProt P05129)	1.08
STK10, construct: aa18-317 (from UniProt O94804)	1.07
STK39, construct: Full length (from UniProt Q9UEW8)	1.59

Same assay, conditions: N fixed; at -4

Substance	relative phosphorylation
CSNK2A1, construct: Full length (from UniProt P68400)	1.04
NEK1, construct: aa1-505 (from UniProt Q96PY6)	0.87
PAK2, construct: aa3-end (from UniProt Q13177)	1.02
PRKCG, construct: Full length (from UniProt P05129)	1.1
STK10, construct: aa18-317 (from UniProt O94804)	0.837
STK39, construct: Full length (from UniProt Q9UEW8)	1.02

Same assay, conditions: N fixed; at -5

Substance	relative phosphorylation
CSNK2A1, construct: Full length (from UniProt P68400)	1.05
NEK1, construct: aa1-505 (from UniProt Q96PY6)	0.959
PAK2, construct: aa3-end (from UniProt Q13177)	1.04
PRKCG, construct: Full length (from UniProt P05129)	0.85
STK10, construct: aa18-317 (from UniProt O94804)	1.15
STK39, construct: Full length (from UniProt Q9UEW8)	0.95

Same assay, conditions: P fixed; at +1

Substance	relative phosphorylation
CSNK2A1, construct: Full length (from UniProt P68400)	0.232
NEK1, construct: aa1-505 (from UniProt Q96PY6)	0.142
PAK2, construct: aa3-end (from UniProt Q13177)	0.222
PRKCG, construct: Full length (from UniProt P05129)	0.333
STK10, construct: aa18-317 (from UniProt O94804)	0.321
STK39, construct: Full length (from UniProt Q9UEW8)	0.175

Same assay, conditions: P fixed; at +2

Substance	relative phosphorylation
CSNK2A1, construct: Full length (from UniProt P68400)	0.543
NEK1, construct: aa1-505 (from UniProt Q96PY6)	0.95
PAK2, construct: aa3-end (from UniProt Q13177)	0.625
PRKCG, construct: Full length (from UniProt P05129)	0.334
STK10, construct: aa18-317 (from UniProt O94804)	1.05
STK39, construct: Full length (from UniProt Q9UEW8)	0.523

Same assay, conditions: P fixed; at +3

Substance	relative phosphorylation
CSNK2A1, construct: Full length (from UniProt P68400)	0.412
NEK1, construct: aa1-505 (from UniProt Q96PY6)	1.12
PAK2, construct: aa3-end (from UniProt Q13177)	0.903
PRKCG, construct: Full length (from UniProt P05129)	0.516
STK10, construct: aa18-317 (from UniProt O94804)	1.62
STK39, construct: Full length (from UniProt Q9UEW8)	0.906

Same assay, conditions: P fixed; at +4

Substance	relative phosphorylation
CSNK2A1, construct: Full length (from UniProt P68400)	0.597
NEK1, construct: aa1-505 (from UniProt Q96PY6)	1.15
PAK2, construct: aa3-end (from UniProt Q13177)	1.38
PRKCG, construct: Full length (from UniProt P05129)	1.36
STK10, construct: aa18-317 (from UniProt O94804)	1.48
STK39, construct: Full length (from UniProt Q9UEW8)	1.14

Same assay, conditions: P fixed; at -1

Substance	relative phosphorylation
CSNK2A1, construct: Full length (from UniProt P68400)	0.541
NEK1, construct: aa1-505 (from UniProt Q96PY6)	0.558
PAK2, construct: aa3-end (from UniProt Q13177)	0.723
PRKCG, construct: Full length (from UniProt P05129)	1.16
STK10, construct: aa18-317 (from UniProt O94804)	0.584
STK39, construct: Full length (from UniProt Q9UEW8)	0.49

Same assay, conditions: P fixed; at -2

Substance	relative phosphorylation
CSNK2A1, construct: Full length (from UniProt P68400)	0.778
NEK1, construct: aa1-505 (from UniProt Q96PY6)	0.677
PAK2, construct: aa3-end (from UniProt Q13177)	0.935
PRKCG, construct: Full length (from UniProt P05129)	1.16
STK10, construct: aa18-317 (from UniProt O94804)	0.492
STK39, construct: Full length (from UniProt Q9UEW8)	0.539

Same assay, conditions: P fixed; at -3

Substance	relative phosphorylation
CSNK2A1, construct: Full length (from UniProt P68400)	0.853
NEK1, construct: aa1-505 (from UniProt Q96PY6)	1.25
PAK2, construct: aa3-end (from UniProt Q13177)	0.894
PRKCG, construct: Full length (from UniProt P05129)	1.12
STK10, construct: aa18-317 (from UniProt O94804)	0.85
STK39, construct: Full length (from UniProt Q9UEW8)	0.937

Same assay, conditions: P fixed; at -4

Substance	relative phosphorylation
CSNK2A1, construct: Full length (from UniProt P68400)	0.807
NEK1, construct: aa1-505 (from UniProt Q96PY6)	1.14
PAK2, construct: aa3-end (from UniProt Q13177)	0.944
PRKCG, construct: Full length (from UniProt P05129)	1.09
STK10, construct: aa18-317 (from UniProt O94804)	1.14
